Reference: patent US20090081238A1 (Genentech, published 2009)

Legend:
[1] = biological target: human Notch1 (on NIH-3T3 cells) (human, UniProt P46531 19-2555); assay: cell-based or functional assay
human Notch2 NRR = biological target: T1, human Notch2 NRR (human, UniProt Q04721 1425-1677); assay: cross-reactivity test of the IgG (method not detailed)
T1 construct: domain: NRR; Construct not described; also called human NRR2
T1 sequence (looked up): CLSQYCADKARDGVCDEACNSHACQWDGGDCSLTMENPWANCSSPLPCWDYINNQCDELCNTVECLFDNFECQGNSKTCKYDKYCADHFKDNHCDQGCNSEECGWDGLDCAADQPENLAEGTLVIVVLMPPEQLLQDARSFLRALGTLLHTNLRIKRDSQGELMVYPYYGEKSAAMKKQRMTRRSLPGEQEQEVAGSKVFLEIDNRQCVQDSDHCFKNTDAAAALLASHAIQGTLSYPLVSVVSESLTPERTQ

murine Notch2 NRR = biological target: T2, murine Notch2 NRR (mouse, UniProt O35516 1425-1679); assay: as above
T2 construct: domain: NRR; Construct not described; also called mouse NRR2
T2 sequence (looked up): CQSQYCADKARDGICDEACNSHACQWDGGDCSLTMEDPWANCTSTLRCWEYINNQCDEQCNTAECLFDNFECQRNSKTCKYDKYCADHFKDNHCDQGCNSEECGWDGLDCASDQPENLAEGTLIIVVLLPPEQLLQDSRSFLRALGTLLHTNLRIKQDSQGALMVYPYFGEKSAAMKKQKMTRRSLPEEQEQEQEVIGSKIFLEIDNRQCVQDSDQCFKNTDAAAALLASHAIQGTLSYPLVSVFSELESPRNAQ

human Notch3 NRR = biological target: T3, human Notch3 NRR (human, UniProt Q9UM47 1378-1643, limits assumed); assay: as above
T3 construct: domain: NRR; Construct not described; also called human NRR3

murine Notch3 NRR = biological target: T4, murine Notch3 NRR (mouse, UniProt Q61982 1379-1643, limits assumed); assay: as above
T4 construct: domain: NRR; Construct not described; also called mouse NRR3

human Notch4 NRR = biological target: T5, human Notch4 NRR (human, UniProt Q99466 1172-1447, limits assumed); assay: as above
T5 construct: domain: NRR; Construct not described; also called human NRR4
T5 sequence (looked up): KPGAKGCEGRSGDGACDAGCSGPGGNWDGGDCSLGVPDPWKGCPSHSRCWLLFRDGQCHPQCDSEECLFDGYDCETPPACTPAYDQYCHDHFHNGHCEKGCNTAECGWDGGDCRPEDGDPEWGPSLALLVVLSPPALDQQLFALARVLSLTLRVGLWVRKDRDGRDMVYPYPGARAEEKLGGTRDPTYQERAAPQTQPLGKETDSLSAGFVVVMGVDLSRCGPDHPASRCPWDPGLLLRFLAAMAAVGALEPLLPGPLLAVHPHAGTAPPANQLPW

murine Notch4 NRR = biological target: T6, murine Notch4 NRR (mouse, UniProt P31695 1168-1443, limits assumed); assay: as above
T6 construct: domain: NRR; Construct not described; also called mouse NRR4
T6 sequence (looked up): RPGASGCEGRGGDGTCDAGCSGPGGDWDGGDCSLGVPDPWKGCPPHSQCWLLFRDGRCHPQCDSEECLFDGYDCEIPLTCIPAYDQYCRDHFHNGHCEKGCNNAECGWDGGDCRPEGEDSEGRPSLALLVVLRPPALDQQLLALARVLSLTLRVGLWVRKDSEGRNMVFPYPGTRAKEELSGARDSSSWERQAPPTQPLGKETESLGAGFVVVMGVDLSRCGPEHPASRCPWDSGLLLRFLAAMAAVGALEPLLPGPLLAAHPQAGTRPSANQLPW

[2] = biological target: T7, hFLAG-EGF34+NRR-His6 (101V), the human Notch1 NRR immunogen (Notch1 V1307-Q1733) (human, UniProt P46531 1307-1733); assay: SPR (BIAcore-3000), IgG captured by anti-human IgG, NRR1-ECD injected 3.9-500 nM, 25 C
T7 construct: also called hNotch1 NRR; human NRR1
Experimental: (§1) To further characterize the binding affinity and binding kinetics of the anti-Notch1 NRR Mabs, surface plasmon resonance (SRP) measurement with a BIAcore™-3000 was used (BIAcore, Inc., Piscataway, N.J.). Briefly, carboxymethylated dextran biosensor chips (CM5, BIAcore Inc.) were activated with N-ethyl-N′-(3-dimethylaminopropyl)-carbodiimide hydrochloride (EDC) and N-hydroxysuccinimide (NHS) according to the supplier's instructions. Rabbit anti human antibody (Pierce) was diluted with 100 mM sodium acetate, pH 4.8, into 20 μg/ml before injection at a flow rate of 5 μl/minute to achieve approximately 3000 response units (RU) of coupled antibody. Next, 1M ethanolamine was injected to block unreacted groups. Anti-NRR1 mab (formatted as a full-length IgG) was captured by rabbit anti-human IgG coated on the chips to achieve approximately 200 response units (RU). For kinetics measurements, two-fold serial dilutions of human NRR1-ECD or murine NRR1-ECD proteins (3.9 nM to 500 nM) were injected in PBT buffer (PBS with 0.05% Tween 20) at 25° C. with a flow rate of 30 μl/min. Association rates (kₒₙ) and dissociation rates (koff) were calculated using a simple one-to-one Langmuir binding model (BIAcore Evaluation Software version 3.2). The equilibrium dissociation constant (KD) was calculated as the ratio koff/kₒₙ.

[3] = biological target: T8, mFLAG-EGF34+NRR-His6, the mouse Notch1 NRR immunogen (Notch1 V1307-Q1723) (mouse, UniProt Q01705 1307-1723); assay: as above
T8 construct: the rest carries an N-terminal FLAG tag and a C-terminal His tag; also called mNotch1 NRR; murine NRR1
Experimental: as §1

[4] = biological target: mEGF34+NRR-L1597H-FLAG-TEV-Fc (mouse) (UniProt Q01705); assay: ELISA, target coated on the plate at 1 ug/ml, IgG titrated in 3-fold steps, detected with peroxidase anti-human Fab; A630
[5] = biological target: T7, hFLAG-EGF34+NRR-His6 (101V), the human …; assay: as above
Experimental: (§2) 1 μg/ml of proteins in PBS, pH 7.4, were coated on ELISA plates (Nunc Maxisorp) at 4° C. overnight. Plates were blocked with Casein blocker in PBS (phosphate buffered saline; Pierce) for one hour at room temperature. Serial 3-fold dilutions of anti Notch1 NRR IgGs or irrelevant IgG in PBST buffer (PBT buffer (PBS+0.05% (v/v) Tween 20) with 0.5% (w/v) BSA) were added to the plates and incubated for one hour at room temperature. The plates were then washed with PBST and bound antibodies were detected with peroxidase-conjugated goat anti human Fab specific IgG (Sigma). TMB substrate (3,3′,5,5′-etramethylbenzidine) was used and absorbance at 650 nm was read using a standard ELISA plate reader. Absorbance was plotted against concentrations of IgGs using KaleidaGraph (Synergy Software).

[6] = biological target: T8, mFLAG-EGF34+NRR-His6, the mouse Notch1 …; assay: as above
Experimental: as §2

hFLAG-NRR-His6 (102V) = biological target: T9, hFLAG-NRR-His6 (102V) (human, UniProt P46531 1447-1733); assay: as above
T9 construct: no EGF-like repeats; not shown: FLAG tag; thrombin cleavage site and HIS tag
Experimental: as §2

T8 sequence (Q01705 other isoform, or with tags, fused parts or gaps): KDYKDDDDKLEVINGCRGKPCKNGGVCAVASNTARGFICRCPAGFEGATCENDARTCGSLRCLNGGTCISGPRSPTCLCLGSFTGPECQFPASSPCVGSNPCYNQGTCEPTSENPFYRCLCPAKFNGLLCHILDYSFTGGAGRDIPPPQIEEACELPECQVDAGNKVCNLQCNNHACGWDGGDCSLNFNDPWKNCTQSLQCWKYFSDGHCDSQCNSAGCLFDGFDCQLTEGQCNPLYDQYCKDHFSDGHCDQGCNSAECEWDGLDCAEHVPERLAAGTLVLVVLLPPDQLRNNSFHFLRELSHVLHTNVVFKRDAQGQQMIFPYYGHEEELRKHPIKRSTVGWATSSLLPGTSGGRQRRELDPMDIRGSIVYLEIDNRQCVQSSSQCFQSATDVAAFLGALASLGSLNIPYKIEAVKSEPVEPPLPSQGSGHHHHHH
Sequence of mEGF34+NRR-L1597H-FLAG-TEV-Fc (mouse) (Q01705 1307-1723, stated change not applied): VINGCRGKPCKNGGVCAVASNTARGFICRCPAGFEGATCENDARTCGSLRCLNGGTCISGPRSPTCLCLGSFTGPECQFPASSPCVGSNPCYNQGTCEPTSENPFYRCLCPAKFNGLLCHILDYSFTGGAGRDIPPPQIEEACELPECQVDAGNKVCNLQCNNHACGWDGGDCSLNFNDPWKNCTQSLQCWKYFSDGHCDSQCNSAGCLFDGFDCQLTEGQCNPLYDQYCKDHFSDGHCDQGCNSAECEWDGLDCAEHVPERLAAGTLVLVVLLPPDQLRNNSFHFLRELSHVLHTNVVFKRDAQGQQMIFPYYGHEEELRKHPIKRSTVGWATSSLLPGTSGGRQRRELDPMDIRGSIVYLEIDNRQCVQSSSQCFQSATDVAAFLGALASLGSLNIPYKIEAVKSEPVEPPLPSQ
T3 sequence (Q9UM47 1378-1643 limits assumed): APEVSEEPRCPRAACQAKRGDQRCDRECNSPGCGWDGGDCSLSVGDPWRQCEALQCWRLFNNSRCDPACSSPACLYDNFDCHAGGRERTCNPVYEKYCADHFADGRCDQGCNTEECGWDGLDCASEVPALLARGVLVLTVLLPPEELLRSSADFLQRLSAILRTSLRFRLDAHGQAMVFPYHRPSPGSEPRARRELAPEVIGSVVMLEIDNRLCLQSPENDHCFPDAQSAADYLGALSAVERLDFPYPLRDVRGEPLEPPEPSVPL
T4 sequence (Q61982 1379-1643 limits assumed): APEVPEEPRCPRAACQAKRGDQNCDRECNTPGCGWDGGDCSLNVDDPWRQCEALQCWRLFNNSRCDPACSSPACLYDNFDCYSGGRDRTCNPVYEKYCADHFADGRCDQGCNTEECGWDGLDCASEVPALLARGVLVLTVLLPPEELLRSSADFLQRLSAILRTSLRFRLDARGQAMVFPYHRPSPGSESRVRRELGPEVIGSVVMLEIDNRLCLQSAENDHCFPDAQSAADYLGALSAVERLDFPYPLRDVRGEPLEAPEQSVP

B1: Antibody A (antibody, V domains shown)
VH: EVQLVESGGGLVQPGGSLRLSCAASGFTFSSYWIHWVRQAPGKGLEWVARINPSNGSTNYADSVKGRFTISADTSKNTAYLQMNSLRAEDTAVYYCARGSGFRWVMDYWGQGTLVTVSS
VL: DIQMTQSPSSLSASVGDRVTITCRASQDVSTAVAWYQQKPDGTVKLLIYSASFLYSGVPSRFSGSGSGTDFTLTISSLQPEDFATYYCQQSYTTPPTFGQGTKVEIKR
notes: Tested as full-length human IgG1 (hIgG1) made in CHO cells; also called anti-Notch1 NRR Antibody A; Antibody A-hIgG1
With B1 the “Co-culture blocking, IC50” value [1] was ~100 ng/mL, the binding result (human Notch2 NRR) was “no binding” and the binding result (murine Notch2 NRR) was “no binding”. B1: no binding (human Notch3 NRR); no binding (murine Notch3 NRR); no binding (human Notch4 NRR). For the same binder, the binding result (murine Notch4 NRR) was “no binding”, the Kd [2] was 134 nM and the koff [2] was 0.011 s⁻¹. It also gave a kon [2] of 82000 M⁻¹ s⁻¹, a Kd [3] of 231 nM and a koff [3] of 0.021 s⁻¹. For the same binder, the kon [3] was 91000 M⁻¹ s⁻¹, the EC50 (read off the curve) [4] was 0.04 µg/mL and the “EC50 (read off the curve)” value [5] was ~0.07 µg/mL. The “EC50 (read off the curve)” value [6] was ~0.05 µg/mL and the “EC50 (read off the curve)” value (hFLAG-NRR-His6 (102V)) was ~0.07 µg/mL.
